Target: T1, human CD137 ligand (human, UniProt P41273 71-254, limits assumed, biotinylated in Example 6)
T1 construct: also called HuCD137L; biotinylated CD137L
Experiment: flow cytometry

T1 sequence (P41273 71-254 limits assumed): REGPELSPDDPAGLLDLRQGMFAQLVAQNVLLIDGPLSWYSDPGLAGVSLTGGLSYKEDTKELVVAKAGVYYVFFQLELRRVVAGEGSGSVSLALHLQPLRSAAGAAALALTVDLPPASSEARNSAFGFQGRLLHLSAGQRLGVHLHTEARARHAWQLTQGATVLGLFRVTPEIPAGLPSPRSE

B1: full-length mouse CD137 on the cell surface (receptor)
chain: VQNSCDNCQPGTFCRKYNPVCKSCPPSTFSSIGGQPNCNICRVCAGYFRFKKFCSSTHNAECECIEGFHCLGPQCTRCEKDCRPGQELTKQGCKTCSLGTFNDQNGTGVCRPWTNCSLDGRSVLKTGTTEKDVVCGPPVVSFSPSTTISVTPEGG
binding result: no binding

— patent US20190055314A1 (ADAGENE, published 2019)
